Earlier results on two molecules are cited in patent US20250177452A1, “USE OF IMMUNOSUPPRESSION TO ENABLE ENGRAFTMENT OF HEMATOPOIETIC STEM CELLS” (The Board of Trustees of the Leland Stanford Junior …, priority 2022, published 2025).

In one data set the target is T1, CD52 (Homo sapiens, UniProt P31358).
T1 construct: CD52 is expressed on 95% of peripheral blood lymphocytes, monocytes and thymocytes; host or cells: endogenous CD52 on peripheral blood lymphocytes in vivo
Particulars: single injection.

The conditions of data set [1]: in vivo.

As to “Alemtuzumab: recombinant humanized monoclonal antibody against CD52”, the depletion of lymphocytes entry with CD52 was “over 99%”.

B1: IMGN901: CD56-targeting antibody-drug conjugate delivering the cytotoxic maytansinoid DM1 (conjugate, chains of the INN, looked up)
VH: QVQLVESGGGVVQPGRSLRLSCAASGFTFSSFGMHWVRQAPGKGLEWVAYISSGSFTIYYADSVKGRFTISRDNSKNTLYLQMNSLRAEDTAVYYCARMRKGYAMDYWGQGTLVTVSS
VL: DVVMTQSPLSLPVTLGQPASISCRSSQIIIHSDGNTYLEWFQQRPGQSPRRLIYKVSNRFSGVPDRFSGSGSGTDFTLKISRVEAEDVGVYYCFQGSHVPHTFGQGTKVEIK
modifications: DM1 maytansinoid payload
notes: CD56-targeting antibody-drug conjugate delivering the cytotoxic maytansinoid DM1
As to B1, the “maximum tolerated dose (MTD)” value in data set [1] is listed as “about 75 mg/m^2”.
